Assay results taken from the supplement of paper PMC9732359.
± gives the uncertainty stated by the source.

Assay: protein stability index of a GFP-peptide fusion (yeast GPS) (PSI 1-4); higher = more stable; sorted into four equal gates, so the index is relative within each strain
How it was run: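 The protein stability index of a peptide was calculated by multiplying its read frequency in each gate by that gate's number and adding the products. The peptides were tiled 17-residue stretches of yeast proteins, fused downstream of GFP on a Cherry-expressing plasmid and carried in yeast as a pooled library. Mid-log cultures in leucine-free medium were sorted into four equal gates by GFP/Cherry ratio, and each gate's plasmids were PCR-amplified and Illumina-sequenced.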

Row | Sequence | protein stability index (doa10∆) | protein stability index (pdr5∆) | protein stability index (san1∆) | protein stability index (ubr1∆)
1 | PQYQYQRRYVIKEKVQF [ITC1] | 1.56 ± 0.069 | 1.88 ± 0.047 | 1.79 ± 0.095 | 1.47 ± 0.03
2 | FMGTAFNQEGDYNFKYG [PRP8] | 3.02 ± 0.11 | 3.1 ± 0.09 | 3.34 ± 0.098 | 3.18 ± 0.072
3 | EITGTSCLTFFQALDSE [ITC1] | 2.46 ± 0.086 | 2.78 ± 0.099 | 2.42 ± 0.1 | 1.82 ± 0.057
4 | LNYTVINFKSREAIRPG [AAR2] | 3.07 ± 0.069 | 3.09 ± 0.068 | 3.15 ± 0.058 | 3.17 ± 0.042
5 | LANYLTSALSELSGLIS [QCR2] | 1.48 ± 0.047 | 1.88 ± 0.044 | 1.84 ± 0.064 | 1.59 ± 0.033
6 | GGIVTVRSEMGEPIHKI [FAS1] | 3.29 ± 0.18 | 2.91 ± 0.21 | – | –
7 | KIHLYEKKLEDYCRILS [YGL172W/NUP49] | 1.54 ± 0.11 | 2.34 ± 0.12 | 2.3 ± 0.13 | 1.78 ± 0.19
8 | AGNTTTGGGLFGSKPTG [YGL172W/NUP49] | 2.4 ± 0.084 | 2.18 ± 0.17 | 2.64 ± 0.11 | 2.21 ± 0.097
9 | LPPNWKYESATASALVN [RPS13] | 2.21 ± 0.081 | 2.59 ± 0.095 | 2.69 ± 0.064 | 2.12 ± 0.049
10 | TTARNDLGVVFARAANG [CSL4] | 1.87 ± 0.056 | 2.02 ± 0.12 | 1.87 ± 0.14 | 2.39 ± 0.048
11 | NNGDKDHLKLVSLFSNL [YIL149C/MLP2] | 2.42 ± 0.09 | 2.67 ± 0.19 | 2.5 ± 0.26 | 2.44 ± 0.096
12 | TFVVEQLIKQSIKNNVA [SNU114] | – | – | – | 2.38 ± 0.27
13 | SDVSDFEGWGHEYIRHL [RPN1] | 3.07 ± 0.15 | 3.09 ± 0.14 | 3.17 ± 0.14 | 3.37 ± 0.15
14 | KSKGDVDIKGEDLHEKN [NUT1] | 3.32 ± 0.27 | – | 3.44 ± 0.15 | –
15 | HFVRDLGTIESAQAETE [DIS3] | 2.16 ± 0.26 | 2.42 ± 0.13 | 2.85 ± 0.21 | 2.49 ± 0.095
16 | KIVVVRAEALNISGEFF [RPL16B] | 2.51 ± 0.12 | 2.79 ± 0.12 | 2.56 ± 0.14 | 3 ± 0.089
17 | GAVIQLLKSTGLHPFEV [RPB4] | 3.32 ± 0.13 | 3.19 ± 0.14 | 3.07 ± 0.2 | 2.99 ± 0.084
18 | NKSTSSEAEYSKDIETL [YIL149C/MLP2] | 3.19 ± 0.089 | 2.97 ± 0.099 | 3.21 ± 0.062 | 3.26 ± 0.072
19 | QIIRLFYSKNRLLITGT [ISW2] | 2.55 ± 0.23 | 1.56 ± 0.14 | – | –
20 | NGQPLNQNFSLTFQPQQ [GRR1] | 3.09 ± 0.051 | 3.12 ± 0.047 | 3.04 ± 0.051 | 3.01 ± 0.043
21 | SKYLIKQIDIPNFNVEI [ECM29] | 1.57 ± 0.069 | 2.01 ± 0.091 | 2.57 ± 0.072 | 2.39 ± 0.059
22 | DDVRRAAVIALGFVLLR [RPN2] | 1.86 ± 0.14 | 2.09 ± 0.075 | 1.99 ± 0.13 | 1.8 ± 0.082
23 | LSKVAALSGNEGDASPF [RPB2] | 1.91 ± 0.046 | 2.79 ± 0.052 | 2.15 ± 0.083 | 2.59 ± 0.071
24 | SAFMKFSKAIEWDMLNV [BRR2] | 2.15 ± 0.07 | 1.9 ± 0.072 | 1.99 ± 0.081 | 2.04 ± 0.045
25 | LPFQRLVREIAQDFKTD [HHT1] | 1.93 ± 0.066 | 2.48 ± 0.061 | 2.48 ± 0.073 | 2.35 ± 0.074
26 | MIDLGFEDQVTNILTKV [PRP28] | – | 3.67 ± 0.25 | 2.88 ± 0.22 | 3.16 ± 0.19
27 | SLKQYAGNLITTPEINN [SRP68] | 2.69 ± 0.073 | 2.88 ± 0.061 | 2.92 ± 0.076 | 2.31 ± 0.041

Row | Sequence | protein stability index (doa10∆) | protein stability index (pdr5∆) | protein stability index (san1∆) | protein stability index (ubr1∆)
28 | GINNLSEIWDVSRGQSA [PRP8] | 3 ± 0.13 | 2.67 ± 0.12 | 2.74 ± 0.29 | 2.26 ± 0.073
29 | HKTMSIVGVLQDDADPM [RPT2] | 1.6 ± 0.18 | 1.3 ± 0.2 | 1.58 ± 0.21 | 1.85 ± 0.13
30 | PSMKKIKIEPSADDDVN [SIR3] | 1.95 ± 0.077 | 2.63 ± 0.1 | 2.75 ± 0.091 | 2.73 ± 0.069
31 | MIYDDAHEISQGVYGAV [BRR2] | 3 ± 0.068 | 2.88 ± 0.051 | 2.83 ± 0.049 | 2.67 ± 0.045
32 | AAQDVWNRADNHFKDTY [FAS1] | 3.05 ± 0.18 | 3.14 ± 0.1 | 3.19 ± 0.11 | 3.53 ± 0.13
33 | SFRIKQKMAKAKKQNRP [RPL39] | 2.47 ± 0.17 | 2.78 ± 0.097 | 2.93 ± 0.091 | 2.93 ± 0.092
34 | TPPAIEHKPVSPDKIGT [SSN2] | 3.03 ± 0.072 | 3.35 ± 0.066 | 3.12 ± 0.076 | 3.17 ± 0.06
35 | TNWIIYPLWVMAKQLIR [CSN12] | 1.39 ± 0.11 | 1.2 ± 0.13 | – | 1.24 ± 0.11
36 | ARDLFLKIYYKEEFSSD [RRI2] | – | 2.44 ± 0.15 | 2.03 ± 0.22 | 2.9 ± 0.1
37 | KNVKHSGNIQLDEIIEI [RPL12A] | 3.24 ± 0.071 | 3.2 ± 0.067 | 3.15 ± 0.053 | 3.22 ± 0.065
38 | RTMYFILDGQDVEENRS [YJR042W/NUP85] | 2.45 ± 0.077 | 3.03 ± 0.089 | 3.22 ± 0.086 | 3.23 ± 0.044
39 | SNIIHDESDTISFRSNL [SNF6] | 2.79 ± 0.1 | 2.68 ± 0.079 | 2.85 ± 0.098 | 2.7 ± 0.067
40 | TTLDAEKVFTQGLNILE [FAS1] | 3.17 ± 0.11 | 3.21 ± 0.1 | 3.32 ± 0.091 | 3.28 ± 0.064
41 | IDEDIGNNVQENELVIT [RMP1] | 3.28 ± 0.17 | – | – | 3.39 ± 0.16
42 | KLYQTEPSGIYSSWSAQ [PRE6] | 2.63 ± 0.084 | 2.15 ± 0.11 | 2.87 ± 0.11 | 1.46 ± 0.054
43 | VKLGLNSKMPTRFPPAV [PRP8] | 2.78 ± 0.057 | 3.06 ± 0.076 | 2.85 ± 0.051 | 2.73 ± 0.06
44 | DVIATEPQGAVTHMDQI [SMD3] | 3.03 ± 0.073 | 2.83 ± 0.084 | 2.28 ± 0.11 | 2.47 ± 0.088
45 | KELNEKIQKLEEDDEGE [RPN7] | 1.2 ± 0.11 | 1.61 ± 0.12 | 1.25 ± 0.15 | 1.06 ± 0.08
46 | TSQHSDSLTQNNNNAPI [YOR098C/NUP1] | 2.72 ± 0.051 | 2.95 ± 0.036 | 2.94 ± 0.043 | 2.88 ± 0.031
47 | VLVGSCAYTGTGDVLLI [RPN1] | 3.13 ± 0.094 | 3.35 ± 0.067 | 3.41 ± 0.13 | 3.1 ± 0.075
48 | LCVLWDDLQSSVIPEVD [YCG1] | 1.88 ± 0.095 | 1.87 ± 0.068 | 2.01 ± 0.087 | 2.34 ± 0.075
49 | VNNCIWALKSSLNSMTN [RGR1] | 2.71 ± 0.1 | 2.39 ± 0.22 | – | 2.37 ± 0.16
50 | WSFYNGNVLINDTLPDE [SNU114] | – | 2.23 ± 0.16 | – | 1.7 ± 0.16
51 | IGAGVPSLEVASEYIET [FAS1] | 3.38 ± 0.15 | 3.12 ± 0.18 | 2.18 ± 0.23 | –
52 | LEDLKDVYASKVRLNAS [PRP8] | 2.31 ± 0.043 | 2.1 ± 0.041 | 2.47 ± 0.047 | 2.27 ± 0.04
53 | PELAMALRLSMEEEQQR [RPN10] | 3.15 ± 0.14 | 3.09 ± 0.061 | – | 3.14 ± 0.08
54 | GLESQIQEIKESVELPL [RPT2] | 2.11 ± 0.087 | 2.3 ± 0.073 | 2.48 ± 0.067 | 2.83 ± 0.072
